In patent US20130296258A1 (Pieris, published 2013):

Key:
[1] = target: T1, Recombinant human Glypican-3 (human, UniProt P51654 25-559, limits assumed, randomly biotinylated via Lysine residues (EZ-Link Sulfo-NHS-LC-LC-Biotin) where captured on Neutravidin; not biotinylated where used as competitor in solution); experiment: direct ELISA; biotinylated human Glypican-3 (1 ug/ml) captured via Neutravidin, dilution series of purified mutein
T1 construct: Bought protein; The biotinylated and the non-biotinylated preparation are written as one molecule; also called GPC3; GPC-3
Protocol: (§1) A “direct” ELISA was performed to verify the binding affinity and specificity of the selected Lcn2 muteins. Therefore, a constant concentration of 1 μg/ml biotinylated human Glypican 3 (R&D Systems) was captured on the surface of a polystyrol plate (Greiner, GE) via BSA blocked Neutravidin (Thermo Scientific, 5 μg/ml). Two step dilution series of purified Lcn2 muteins were incubated with the captured GPC-3 for 1 h at room temperature and detected either via the Strep-tag II using a rabbit anti-strep-tag II polyconal antibody (GenScript, USA) or by using a scaffold-specific polyclonal rabbit antibody. In both cases an anti rabbit IgG-HRP conjugate (Abcam, UK) was employed as secondary detection antibody.
(§2) The absorption ΔA at […] was measured in an ELISA reader (Tecan, GE) and the data were fitted with Graphpad Prism software (Statcom, USA).

[2] = target: T1, Recombinant human Glypican-3; experiment: SPR (Biacore T100), Glypican-3 amine-coupled to a CM5 chip, mutein as analyte, evaluated conc 40/120 nM, 1:1 model
Protocol: (§3) Real time analysis of the binding of the Lcn2 muteins to Glypican-3 was performed on a Biacore T100 system (GE Healthcare Bio-Sciences AB, Uppsala, Sweden) using HBS-EP+ (BR-1006-69, GE Healthcare Bio-Sciences AB, Uppsala, Sweden) as running buffer. A 10 μg/mL solution of Glypican-3 in 10 mM sodium acetate pH 4.5 was immobilized onto a CM5 chip (GE Healthcare Bio-Sciences AB, Uppsala, Sweden) using standard amine coupling chemistry, resulting in a ligand density of 467 RU. The purified Lcn2 muteins were applied in concentrations of 40 nM and 120 nM at a flow rate of 30 μL/min. The dilutions were injected with association times of 120 sec and dissociation times of 420 sec to obtain ka and kd information. Regeneration of the ligand was achieved by injecting either 6 M Guanidinium-HCl (120 sec/300 sec) or 3 M MgCl2 (900 sec) with a flow rate of 10 μL/min. Injection of regeneration solutions was followed by an extra wash step with running buffer and a stabilization period of 180 sec.
(§4) The data were double-referenced by subtraction of the corresponding signals measured for the control channel, which had been activated and blocked with ethanolamine and by substraction of buffer injections from the binding responses. ka and kd for the binding reaction were determined using Biacore T100 Evaluation Software V2.0.1 for data processing and kinetic fitting. The data were globally fit with 1:1 binding model.

[3] = target: T1, Recombinant human Glypican-3; experiment: flow cytometry on SK-HEP1 cells stably transfected with human GPC3, detection via rabbit anti-hNGAL antiserum and anti-rabbit IgG-PE
Protocol: (§5) Empty vector control cells were also obtained and analyzed in parallel. Detection of GPC3 was achieved using mouse anti-glypican 3 clone 1G12 monoclonal antibody (DCS).
(§6) In order to assess binding of muteins to the GPC3 on the cell surface, 200,000 cells in PBS/2% FCS were used in each binding reaction. Reactions were performed on ice in 30 μl for 2 h. Following two washing steps in PBS/2% FCS a secondary rabbit anti-hNGAL scaffold antiserum was employed for 30 min. followed another two wash steps. […] Measurements were performed on a FACSCalibur flow cytometer where 10,000 events were acquired for each sample. Geometric mean values were compiled in FlowJo (Treestar software) and fitted to a sigmoidal dose response model in the Prism 5 program (GraphPad) to obtain EC50 values.

mouse GPC3-SK-HEP1 = target: T2, mouse GPC3-SK-HEP1 (mouse, UniProt Q8CFZ4); experiment: flow cytometry on SK-HEP1 cells stably transfected with mouse GPC3, detection via rabbit anti-hNGAL antiserum and anti-rabbit IgG-PE
T2 construct: cell-surface protein on transfected cells; also called mouse GPC3 transfected SK-Hep1 cells
Protocol: as §5, §6

cyno GPC3-SK-HEP1 = target: T3, cyno GPC3-SK-HEP1 (Macaca fascicularis, UniProt A0A2K5VK50); experiment: flow cytometry on SK-HEP1 cells stably transfected with cynomolgus GPC3, detection via rabbit anti-hNGAL antiserum and anti-rabbit IgG-PE
T3 construct: cell-surface protein on transfected cells; also called cynomolgus GPC3; cyno GPC3 transfected SK-Hep1 cells
Protocol: as §5, §6

[4] = target: T1, Recombinant human Glypican-3; experiment: competition ELISA: constant mutein pre-incubated with a dilution series of non-biotinylated human Glypican-3, free mutein detected on plate-captured biotinylated human Glypican-3
Protocol: The binding affinity of the Lcn2 muteins to non-modified Glypican-3 in solution was evaluated in a competition ELISA approach. Therefore, a constant concentration of 1 μg/ml biotinylated human Glypican-3 (R&D Systems) was captured on the surface of a polystyrol plate (Greiner, GE) via Neutravidin (Thermo Scientific, 5 μg/ml, GE). In parallel a two step dilution series of non-biotinylated human Glypican-3 starting from 1.5 μM was incubated with a constant concentration of GPC3-specific mutein for 1 h at room temperature in a non-protein binding 96 well polypropylene plate (Nunc, GE). The constant concentration of lipocalin muteins corresponds to the EC₅₀ of the respective muteins as determined in a direct ELISA as described above in this example. In the following the mixture of non-modified human GPC3 and lipocalin mutein was transferred onto the GPC3-captured Neutravidin plate. The biotinylated GPC3 was allowed to compete with the non-modified GPC3 for Anticalin binding for 1 h at room temperature. During these 1 h, free lipcocalin mutein was bound to the captured GPC3 and detected via a rabbit anti-strep-tag II polyconal antibody (GenScript, USA). A goat anti-rabbit IgG-HRP conjugate (Abcam, UK) was employed as secondary detection antibody. Parallel to the competition assay, anticalin binding was determined on the same plate in a “direct” ELISA, in order to obtain a standard curve linking the RFU values to anticalin concentration. This curve was then used to standardize competition data to the level of anticalins bounds to the plate and fitted with Graphpad software. IC₅₀ values correspond to the half-maximum amount of lipocalin mutein bound to the plate.

[5] = target: T1, Recombinant human Glypican-3; experiment: SPR (Biacore T100), Glypican-3 amine-coupled to a CM5 chip, mutein as analyte, evaluated conc 120 nM, 1:1 model
Protocol: as §3, §4

[6] = target: T1, Recombinant human Glypican-3; experiment: direct ELISA: biotinylated human Glypican-3 captured via Neutravidin, protein titrated, RFU readout
Protocol: as §1, §2

T1 sequence (P51654 25-559 limits assumed): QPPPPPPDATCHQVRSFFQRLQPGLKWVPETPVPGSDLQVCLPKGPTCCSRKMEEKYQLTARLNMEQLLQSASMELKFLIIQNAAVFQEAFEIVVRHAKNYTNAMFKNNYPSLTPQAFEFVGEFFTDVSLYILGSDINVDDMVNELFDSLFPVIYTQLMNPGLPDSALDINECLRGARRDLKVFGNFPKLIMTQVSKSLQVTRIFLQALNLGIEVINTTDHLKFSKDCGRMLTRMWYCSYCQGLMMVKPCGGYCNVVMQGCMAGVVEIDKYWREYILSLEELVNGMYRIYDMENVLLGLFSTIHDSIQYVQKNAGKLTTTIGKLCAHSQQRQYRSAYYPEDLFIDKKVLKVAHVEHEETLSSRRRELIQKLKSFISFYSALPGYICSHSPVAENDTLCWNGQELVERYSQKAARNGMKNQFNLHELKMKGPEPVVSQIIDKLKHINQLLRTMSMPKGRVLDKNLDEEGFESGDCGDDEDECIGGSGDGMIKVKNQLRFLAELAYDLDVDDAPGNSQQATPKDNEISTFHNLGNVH
T2 sequence (Q8CFZ4 25-553 limits assumed): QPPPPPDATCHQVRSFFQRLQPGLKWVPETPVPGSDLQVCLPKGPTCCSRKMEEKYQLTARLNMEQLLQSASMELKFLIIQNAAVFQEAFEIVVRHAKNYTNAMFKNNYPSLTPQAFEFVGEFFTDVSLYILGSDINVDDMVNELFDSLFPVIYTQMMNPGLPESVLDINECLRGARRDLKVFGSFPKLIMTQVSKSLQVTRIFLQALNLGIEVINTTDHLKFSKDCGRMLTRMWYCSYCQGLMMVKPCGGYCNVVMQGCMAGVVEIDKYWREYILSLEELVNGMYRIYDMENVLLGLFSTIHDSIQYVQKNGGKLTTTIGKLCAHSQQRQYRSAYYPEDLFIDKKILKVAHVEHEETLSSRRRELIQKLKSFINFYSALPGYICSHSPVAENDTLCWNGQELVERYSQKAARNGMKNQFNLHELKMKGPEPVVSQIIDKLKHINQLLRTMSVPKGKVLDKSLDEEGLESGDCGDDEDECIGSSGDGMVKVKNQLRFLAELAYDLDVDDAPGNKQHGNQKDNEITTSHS

Binder | Kd [1] [pM] | Kd [2] [pM] | koff [2] [s⁻¹] | kon [2] [M⁻¹ s⁻¹] | EC50 [3] [pM] | EC50 (mouse GPC3-SK-HEP1) [pM] | EC50 (cyno GPC3-SK-HEP1) [pM] | IC50 [4] [pM] | Kd [5] [pM] | koff [5] [s⁻¹] | kon [5] [M⁻¹ s⁻¹] | binding result [6]
PIE-G3E (designed binder, C-terminal Strep-tag II; also called Lcn2 mutein; not shown: C-terminal Strep-tag II) QDSTSDLIPAPPLSKVPLQQNFQDNQFHGKWYVVGSAGNHRLREDKDPRKMHATIYELKEDKSYNVTNVTFREKKCHYSIGTFVPGSQPGEFTLGKIKSNPGMTSFLVRVVSTNYNQHAMVFFKKVHQNREQFNITLYGRTKELTSELKENFIRFSKSLGLPENHIVFPVPIDQCIDGSAWSHPQFEK | 200 | 350 | 0.00178 | 5.11e+06 | 400 | 2700 | 120 | 100 | – | – | – | –
PIE-G3H (designed binder, C-terminal Strep-tag II; also called Lcn2 mutein; not shown: C-terminal Strep-tag II) QDSTSDLIPAPPLSKVPLQQNFQDNQFHGKWYVVGIAGNYILREDKDPPKMRATIYELKEDKSYNVTRVFFSRKKCDYIIWTFVPGSQPGEFTLGFIKSNPGLTSLLVRVVSTNYNQHAMVFFKWVDQNREVFGITLYGRTKELTSELKENFIRFSKSLGLPENHIVFPVPIDQCIDGSAWSHPQFEK | 300 | – | – | – | 49000 | 580000 | 98000 | 230 | 1070 | 0.000209 | 195000 | –
PIE-G3C (designed binder, C-terminal Strep-tag II; also called Lcn2 mutein; not shown: C-terminal Strep-tag II) QDSTSDLIPAPPLSKVPLQQNFQDNQFHGKWYVVGRAGNVALREDKDPPKMRATIYELKEDKSYNVTNVRFAMKKCMYSIGTFVPGSQPGEFTLGQIKSEPGNTSNLVRVVSTNYNQHAMVFFKEVYQNREIFFITLYGRTKELTSELKENFIRFSKSLGLPENHIVFPVPIDQCIDGSAWSHPQFEK | 320 | 1210 | 0.00238 | 1.97e+06 | 500 | 3500 | 200 | 1000 | – | – | – | –
PIE-G3D (designed binder, C-terminal Strep-tag II; also called Lcn2 mutein; not shown: C-terminal Strep-tag II) QDSTSDLIPAPPLSKVPLQQNFQDNQFHGKWYVVGMAGNARLREDKDPVKMTATIYELKEDKSYNVTAVQFRLKKCQYGITTFVPGSQPGEFTLGDIKSIPGLTSMLVRVVSTNYNQHAMVFFKRVRQNREFFDITLYGRTKELTSELKENFIRFSKSLGLPENHIVFPVPIDQCIDGSAWSHPQFEK | 460 | 1400 | 0.00109 | 781000 | 1000 | 10500 | 700 | 700 | – | – | – | –
PIE-G3G (designed binder, C-terminal Strep-tag II; also called Lcn2 mutein; not shown: C-terminal Strep-tag II) QDSTSDLIPAPPLSKVPLQQNFQDNQFHGKWYVVGMAGNASLREDKDPRKMNATIYELKEDKSYNVTKVRFWHKKCYYSITTFVPGSQPGEFTLGDIKSYPGWTSYLVRVVSTNYNQHAMVFFKGVRQNREWFSITLYGRTKELTSELKENFIRFSKSLGLPENHIVFPVPIDQCIDGSAWSHPQFEK | 270 | 510 | 0.000723 | 1.42e+06 | 700 | 4300 | 200 | 100 | – | – | – | –
PIE-G3A (designed binder, Made in E. coli from phNGAL98 with a C-terminal Strep-tag II; also called Lcn2 mutein; not shown: C-terminal Strep-tag II) QDSTSDLIPAPPLSKVPLQQNFQDNQFHGKWYVVGIAGNWILREDKDPPKMRATIYELKEDKSYNVTRVRFDEKKCGYGIATFVPGSQPGEFTLGVIKSRPGITSDLVRVVSTNYNQHAMVFFKFVKQNREYFGITLYGRTKELTSELKENFIRFSKSLGLPENHIVFPVPIDQCIDGSAWSHPQFEK | 7600 | 3780 | 0.000603 | 160000 | > 100000 | – | > 100000 | 600 | – | – | – | –
PIE-G3F (designed binder, C-terminal Strep-tag II; also called Lcn2 mutein; not shown: C-terminal Strep-tag II) QDSTSDLIPAPPLSKVPLQQNFQDNQFHGKWYVVGIAGNGQLREDKDPWKMSATIYELKEDKSYNVTSVRFRLKKCSYWIYTFVPGSQPGEFTLGGIKSNPGDTSNLVRVVSTNYNQHAMVFFKYVIQNREWFIITLYGRTKELTSELKENFIRFSKSLGLPENHIVFPVPIDQCIDGSAWSHPQFEK | 350 | 3130 | 0.00128 | 409000 | 4700 | 18700 | 3200 | 70 | – | – | – | –
Lcn2 wildtype protein (other, also called recombinant Lcn2; negative control; not shown: C-terminal Strep-tag II of the phNGAL98 expression vector) QDSTSDLIPAPPLSKVPLQQNFQDNQFHGKWYVVGLAGNAILREDKDPQKMYATIYELKEDKSYNVTSVLFRKKKCDYWIRTFVPGSQPGEFTLGNIKSYPGLTSYLVRVVSTNYNQHAMVFFKKVSQNREYFKITLYGRTKELTSELKENFIRFSKSLGLPENHIVFPVPIDQCIDG | – | – | – | – | – | – | – | – | – | – | – | no binding
PIE-G3B (designed binder, C-terminal Strep-tag II; also called Lcn2 mutein; not shown: C-terminal Strep-tag II) QDSTSDLIPAPPLSKVPLQQNFQDNQFHGKWYVVGVAGNAMLREDKDPLKMRATIYELKEDKSYNVTGVSFWRKKCHYKIGTFVPGSQPGEFTLGDIKSGPGQTSNLVRVVSTNYNQHAMVFFKEVRQNREWFAITLYGRTKELTSELKENFIRFSKSLGLPENHIVFPVPIDQCIDGSAWSHPQFEK | 270 | 550 | 0.000242 | 438000 | 2500 | 2900 | 1100 | 200 | – | – | – | –
